Laboratory results from US20240400614A1, “CLEAVABLE PEPTIDES AND METHODS OF USE THEREOF” (Bright Peak Therapeutics AG, priority 2023, published 2024).
Square brackets hold non-standard residues; d marks the D form. Ends that are not written are not given here. Tyr(3-NO2) = N[C@@H](Cc1ccc(O)c([N+](=O)[O-])c1)C(=O)O; 2Abz = Nc1ccccc1C(=O)O

What was measured:
Assay type in all cases: biochemical
[1] = molecular target: Kallikrein-3 (Homo sapiens, UniProt P07288); test: FRET peptide cleavage efficiency with Kallikrein-3; details: peptide 200 uM, Kallikrein-3 2 μg/ml, 37° C., pH 8
Kallikrein-3, sequence (P07288 25-261, species assumed): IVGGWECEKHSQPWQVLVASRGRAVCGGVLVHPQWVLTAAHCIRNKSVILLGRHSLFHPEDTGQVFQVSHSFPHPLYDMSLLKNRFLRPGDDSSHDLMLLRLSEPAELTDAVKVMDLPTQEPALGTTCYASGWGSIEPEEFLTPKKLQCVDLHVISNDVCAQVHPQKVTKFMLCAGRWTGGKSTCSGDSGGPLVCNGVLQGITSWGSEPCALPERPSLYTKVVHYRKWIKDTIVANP

[2] = molecular target: T1, matriptase (Homo sapiens, UniProt Q9Y5Y6); test: FRET peptide cleavage efficiency with matriptase
T1 construct: purchased R&D Systems 3946-SEB
T1 sequence (Q9Y5Y6 615-855 limits assumed): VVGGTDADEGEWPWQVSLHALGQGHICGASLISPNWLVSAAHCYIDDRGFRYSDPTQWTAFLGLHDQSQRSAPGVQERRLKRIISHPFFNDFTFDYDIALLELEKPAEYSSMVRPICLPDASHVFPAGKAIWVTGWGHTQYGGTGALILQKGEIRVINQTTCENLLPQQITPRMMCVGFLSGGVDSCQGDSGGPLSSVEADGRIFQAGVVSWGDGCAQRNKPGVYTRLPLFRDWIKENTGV

[3] = molecular target: T2, MMP-2 (Homo sapiens, UniProt P08253); test: FRET peptide cleavage efficiency with MMP-2
T2 construct: purchased SIGMA PF023
T2 sequence (P08253 110-660): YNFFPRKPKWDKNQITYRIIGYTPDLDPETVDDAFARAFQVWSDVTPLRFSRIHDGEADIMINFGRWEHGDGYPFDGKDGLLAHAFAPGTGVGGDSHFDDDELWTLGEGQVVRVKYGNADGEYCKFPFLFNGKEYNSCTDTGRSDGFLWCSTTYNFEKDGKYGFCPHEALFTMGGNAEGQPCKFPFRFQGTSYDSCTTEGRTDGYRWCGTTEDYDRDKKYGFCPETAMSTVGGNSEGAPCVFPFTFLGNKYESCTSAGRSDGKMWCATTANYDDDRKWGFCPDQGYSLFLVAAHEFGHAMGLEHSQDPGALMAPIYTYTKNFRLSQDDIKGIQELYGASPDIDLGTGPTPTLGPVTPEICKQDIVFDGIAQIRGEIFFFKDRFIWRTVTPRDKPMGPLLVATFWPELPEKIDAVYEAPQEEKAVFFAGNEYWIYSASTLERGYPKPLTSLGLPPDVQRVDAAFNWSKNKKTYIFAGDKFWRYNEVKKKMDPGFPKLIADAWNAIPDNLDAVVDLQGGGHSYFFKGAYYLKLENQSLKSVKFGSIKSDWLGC

[4] = molecular target: uPA (Homo sapiens, UniProt P00749); test: FRET peptide cleavage efficiency with uPA
[5] = molecular target: T3, MMP-7 (Homo sapiens, UniProt P09237); test: FRET peptide cleavage efficiency with MMP-7 (standard pH 7.5; also pH 6.5); details: for % cleavage MMP-7 t = 15 min: t = 15 min (Table 9); for % cleavage MMP-7 t = 60 min: t = 60 min (Table 9); for % cleavage MMP-7 t = 120 min: t = 120 min (Table 9)
T3 construct: purchased SIGMA CC1059
T3 sequence (P09237 95-267): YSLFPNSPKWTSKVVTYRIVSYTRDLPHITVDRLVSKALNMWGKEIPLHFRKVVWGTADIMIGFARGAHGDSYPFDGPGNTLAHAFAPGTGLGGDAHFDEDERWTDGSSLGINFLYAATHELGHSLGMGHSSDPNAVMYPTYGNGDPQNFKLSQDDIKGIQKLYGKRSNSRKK

[6] = molecular target: T4, MMP-9 (Homo sapiens, UniProt P14780); test: FRET peptide cleavage efficiency with MMP-9 (standard pH 7.5; also pH 6.5); details: for % cleavage MMP-9 t = 15 min: t = 15 min (Table 9); for % cleavage MMP-9 t = 60 min: t = 60 min (Table 9); for % cleavage MMP-9 t = 120 min: t = 120 min (Table 9)
T4 construct: purchased SIGMA PF024
T4 sequence (P14780 94-707): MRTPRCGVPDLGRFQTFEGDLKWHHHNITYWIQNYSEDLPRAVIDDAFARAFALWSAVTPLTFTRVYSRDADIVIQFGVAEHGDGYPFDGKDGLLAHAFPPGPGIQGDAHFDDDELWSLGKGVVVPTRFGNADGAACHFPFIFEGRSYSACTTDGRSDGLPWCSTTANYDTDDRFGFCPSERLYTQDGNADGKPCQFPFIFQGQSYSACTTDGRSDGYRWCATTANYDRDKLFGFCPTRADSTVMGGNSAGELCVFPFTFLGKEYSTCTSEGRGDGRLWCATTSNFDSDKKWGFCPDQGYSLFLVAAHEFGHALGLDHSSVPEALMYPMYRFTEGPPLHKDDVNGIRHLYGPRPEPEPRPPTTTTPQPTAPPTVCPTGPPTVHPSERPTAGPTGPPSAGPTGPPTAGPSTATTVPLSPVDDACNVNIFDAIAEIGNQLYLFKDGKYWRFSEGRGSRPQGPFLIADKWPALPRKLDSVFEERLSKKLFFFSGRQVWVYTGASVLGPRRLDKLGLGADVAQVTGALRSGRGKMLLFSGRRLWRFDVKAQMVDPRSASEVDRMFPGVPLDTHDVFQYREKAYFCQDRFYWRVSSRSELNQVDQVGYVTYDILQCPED

[7] = t = 15 min, 200 uM linker, 1 ug/ml protease, 37° C., buffer B pH 9.0
[8] = t = 60 min, 200 uM linker, 1 ug/ml protease, 37° C., buffer B pH 9.0
[9] = 200 uM linker, 1 ug/ml protease, 37° C., buffer B pH 9.0
[10] = t = 15 min, 200 uM linker, 1 ug/ml protease, 37° C., buffer C pH 7.5
[11] = t = 60 min, 200 uM linker, 1 ug/ml protease, 37° C., buffer C pH 7.5
[12] = t = 120 min, 200 uM linker, 1 ug/ml protease, 37° C., buffer C pH 7.5
[13] = 200 uM linker, 1 ug/ml protease, 37° C., buffer A pH 8.5
[14] = t = 60 min, 200 uM linker, 1 ug/ml protease, 37° C., buffer A pH 8.5
[15] = t = 120 min, 200 uM linker, 1 ug/ml protease, 37° C., buffer A pH 8.5

Kallikrein-3 t = 1 h % cleavage [1] [%]	Kallikrein-3 t = 3 h % cleavage [1] [%]	Kallikrein-3 t = 6 h % cleavage [1] [%]	Kallikrein-3 t = 8 h % cleavage [1] [%]	% cleavage Matriptase t = 15 min [2, 7] [%]	% cleavage Matriptase t = 60 min [2, 8] [%]	% cleavage Matriptase t = 120 min [2, 9] [%]	% cleavage MMP-2 t = 15 min [3, 10] [%]	% cleavage MMP-2 t = 60 min [3, 11] [%]	% cleavage MMP-2 t = 120 min [3, 12] [%]	% cleavage uPA t = 60 min ([4]; pH 6.5, t = 60 min (Table 7)) [%]	% cleavage uPA t = 120 min ([4]; pH 6.5, t = 120 min (Table 7)) [%]	% cleavage uPA t = 60 min ([4]; pH 7.5, t = 60 min (Table 7)) [%]	% cleavage uPA t = 120 min ([4]; pH 7.5, t = 120 min (Table 7)) [%]	% cleavage uPA t = 15 min [4, 13] [%]	% cleavage uPA t = 60 min [4, 14] [%]	% cleavage uPA t = 120 min [4, 15] [%]	% cleavage Matriptase t = 15 min ([2]; pH 6.5, t = 15 min (Table 7)) [%]	% cleavage Matriptase t = 60 min ([2]; pH 6.5, t = 60 min (Table 7)) [%]	% cleavage Matriptase t = 15 min ([2]; pH 7.5, t = 15 min (Table 7)) [%]	Sequence	further results
8	22	41	51	0	0	0	1	5	10	–	–	–	–	–	–	–	–	–	–	SQYQSSPG ([2Abz]SQYQSSPG[Tyr(3-NO2)]-NH2) [LNK067]	–
32	68	93	100	0	0	0	3	12	21	–	–	–	–	–	–	–	–	–	–	SSLYSSPG ([2Abz]SSLYSSPG[Tyr(3-NO2)]-NH2) [LNK065]	–
–	–	–	–	8	9	11	31	81	96	0	0	0	0	0	1	3	0	0	0	SSRGPYMLQG ([2Abz]SSRGPYMLQG[Tyr(3-NO2)]-NH2) [LNK022]	% cleavage Matriptase t = 60 min ([2]; pH 7.5, t = 60 min (Table 7)): 0%; % cleavage MMP-2 t = 15 min ([3]; pH 6.5, t = 15 min (Table 7)): 32%; % cleavage MMP-2 t = 60 min ([3]; pH 6.5, t = 60 min (Table 7)): 74%; % cleavage MMP-2 t = 15 min ([3]; pH 7.5, t = 15 min (Table 7)): 36%; % cleavage MMP-2 t = 60 min ([3]; pH 7.5, t = 60 min (Table 7)): 84%; % cleavage MMP-2 t = 15 min ([3]; t = 15 min (Table 9)): 27%; % cleavage MMP-2 t = 60 min ([3]; t = 60 min (Table 9)): 79%; % cleavage MMP-2 t = 120 min ([3]; t = 120 min (Table 9)): 94%; % cleavage MMP-7 t = 15 min [5]: 40%; % cleavage MMP-7 t = 60 min [5]: 0%; % cleavage MMP-7 t = 120 min [5]: 100%; % cleavage MMP-9 t = 15 min [6]: 63%; % cleavage MMP-9 t = 60 min [6]: 99%; % cleavage MMP-9 t = 120 min [6]: 100%

More lines, now with the values behind:

Sequence	Kallikrein-3 t = 1 h % cleavage [1] [%]	Kallikrein-3 t = 3 h % cleavage [1] [%]	Kallikrein-3 t = 6 h % cleavage [1] [%]	Kallikrein-3 t = 8 h % cleavage [1] [%]	% cleavage Matriptase t = 15 min [2, 7] [%]	% cleavage Matriptase t = 60 min [2, 8] [%]	% cleavage Matriptase t = 120 min [2, 9] [%]	% cleavage MMP-2 t = 15 min [3, 10] [%]	% cleavage MMP-2 t = 60 min [3, 11] [%]	% cleavage MMP-2 t = 120 min [3, 12] [%]	% cleavage uPA t = 60 min ([4]; pH 6.5, t = 60 min (Table 7)) [%]	% cleavage uPA t = 120 min ([4]; pH 6.5, t = 120 min (Table 7)) [%]	% cleavage uPA t = 60 min ([4]; pH 7.5, t = 60 min (Table 7)) [%]	% cleavage uPA t = 120 min ([4]; pH 7.5, t = 120 min (Table 7)) [%]	% cleavage uPA t = 15 min [4, 13] [%]	% cleavage uPA t = 60 min [4, 14] [%]	% cleavage uPA t = 120 min [4, 15] [%]	% cleavage Matriptase t = 15 min ([2]; pH 6.5, t = 15 min (Table 7)) [%]	% cleavage Matriptase t = 60 min ([2]; pH 6.5, t = 60 min (Table 7)) [%]	% cleavage Matriptase t = 15 min ([2]; pH 7.5, t = 15 min (Table 7)) [%]	further results
SSLQSSPG ([2Abz]SSLQSSPG[Tyr(3-NO2)]-NH2) [LNK066]	14	40	67	78	0	0	0	1	5	9	–	–	–	–	–	–	–	–	–	–	–
SSRGRRGPYMLQG ([2Abz]SSRGRRGPYMLQG[Tyr(3-NO2)]-NH2) [LNK021]	–	–	–	–	100	100	100	23	66	88	0	0	10	19	5	16	27	100	100	100	% cleavage Matriptase t = 60 min ([2]; pH 7.5, t = 60 min (Table 7)): 100%; % cleavage MMP-2 t = 15 min ([3]; pH 6.5, t = 15 min (Table 7)): 26%; % cleavage MMP-2 t = 60 min ([3]; pH 6.5, t = 60 min (Table 7)): 64%; % cleavage MMP-2 t = 15 min ([3]; pH 7.5, t = 15 min (Table 7)): 24%; % cleavage MMP-2 t = 60 min ([3]; pH 7.5, t = 60 min (Table 7)): 64%; % cleavage MMP-2 t = 15 min ([3]; t = 15 min (Table 9)): 20%; % cleavage MMP-2 t = 60 min ([3]; t = 60 min (Table 9)): 64%; % cleavage MMP-2 t = 120 min ([3]; t = 120 min (Table 9)): 100%; % cleavage MMP-7 t = 15 min [5]: 22%; % cleavage MMP-7 t = 60 min [5]: 69%; % cleavage MMP-7 t = 120 min [5]: 83%; % cleavage MMP-9 t = 15 min [6]: 60%; % cleavage MMP-9 t = 60 min [6]: 98%; % cleavage MMP-9 t = 120 min [6]: 100%
